Among the data in paper doi:10.1101/2025.08.27.672506 are stoichiometry N values, retold here.

For this experiment, the target named is wild-type ectodomain of HA from A/Malaysia/1706215/2007 (H1N1) (influenza A virus A/Malaysia/1706215/2007 (H1N1)). Put plainly: SEC. A general note: SEC sorts molecules by how far they enter the pores of the column.

Consider “wild-type ectodomain of HA from A/Malaysia/1706215/2007 (H1N1) (domain or fragment)”, for which the stoichiometry N (commonly the number of molecules, sites or subunits per partner or assembly) turned out to be 3.
